Data published in patent US20180346602A1.

B1: anti-variant (human) Fc-region antibody M1.3.17 (antibody, V domains shown)
VH: EVKLLESGGGLVQPGGSLKLSCAASGIDFRRYWMNWVRQAPGKGLEWIGEIDPDSSTINYTPSLKDKFIISRDNAKNTMYLQMRKVRSEDTALYYCARPYDYGAWFAYWGQGTLVTVSA
VL: QAVVTQESALTTSPGETVTLTCRSTTGAVTTSNYANWVQEKPDHLFTGLIGGTNKRAPGVPARFSGSLIGDKAALTITGAQTEDEAIYFCALWYSDHWVFGGGTKLTVL
B2: anti-variant (human) Fc-region antibody M1.7.24 (antibody, V domains shown)
VH: EVKLLESGGGLVQPGGSLKLSCAASGFDFSRYWMNWVRQAPGKGLEWIGEITPDSSTINYTPSLKDKFIISRDNAKNTLYLQMIKVRSEDTALYYCVRPYDYGAWFASWGQGTLVTVSA
VL: QAVVTQESALTTSPGETVTLTCRSSTGAVTTSNYANWVQEKPDHLFTGLIGGTNKRAPGVPARFSGSLIGDKAALTITGAQTEDEAIYFCALWYSNHWVFGGGTKLTVL
B3: anti-AAA variant Fc-region antibody M1.6.22 (antibody, V domains shown)
VH: EVQLVESGGDLVKPGGSLKLSCAASGFTFSSYGMSWVRQTPDKRLEWVATISSGGSYIYYPDSVKGRFTISRDNAKNTLYLQMSSLKSEDTAMYYCARLGMITTGYAMDYWGQGTSVTVSS
VL: DVLMTQTPLSLPVSLGDQASISCRSSQTIVHSTGHTYLEWFLQKPGQSPKLLIYKVSNRFSGVPDRFSGSGSGTDFTLKISRVEAEDLGVYYCFQGSHVPYTFGGGTKLEIK

Columns and labels:
[1] = target: anti-VEGF/ANG2 antibody (IgG1 subclass with mutations P329G/L234A/L235A/I253A/H310A/H435A) [IgG part: P01857]; experiment: sandwich ELISA assay A; capture M1.7.10-Bi; antibody 1 at 0 ng/mL (blank)
[2] = target: anti-P-Selectin antibody (IgG4 subclass with mutations S228P/L235E) (human) [IgG part: P01861]; experiment: sandwich ELISA assay B; capture on SA plate; tracer M1.7.10-Dig; analyte 25 ng/mL
[3] = target: anti-IGF-1R antibody (IgG1 subclass with mutations I253A/H310A/H435A) (human) [IgG part: P01857]; experiment: as above
[4] = target: anti-VEGF/ANG2 antibody (wild-type IgG1 subclass) [IgG part: P01857]; experiment: sandwich ELISA assay A; capture M1.7.10-Bi; antibody 5 at 50 ng/mL
[5] = target: anti-P-Selectin antibody (IgG4 subclass with mutations S228P/L235E) [IgG part: P01861]; experiment: sandwich ELISA assay A; capture M1.7.10-Bi; antibody 4 at 2 ng/mL
[6] = target: anti-IGF-1R antibody (IgG1 subclass with mutations I253A/H310A/H435A) [IgG part: P01857]; experiment: sandwich ELISA assay A; capture M1.7.10-Bi; antibody 3 at 13 ng/mL
[7] = target: anti-VEGF/ANG2 antibody (IgG1 subclass with mutations P329G/L234A/L235A) (human) [IgG part: P01857]; experiment: sandwich ELISA assay B; capture on SA plate; tracer M1.7.10-Dig; analyte 100 ng/mL
[8] = target: anti-VEGF/ANG2 antibody (IgG1 subclass with mutations P329G/L234A/L235A/I253A/H310A/H435A) (human) [IgG part: P01857]; experiment: sandwich ELISA assay C; capture on SA plate; tracer FcγRI-Dig; analyte 3 ng/mL
[9] = target: anti-VEGF/ANG2 antibody (IgG1 subclass with mutations P329G/L234A/L235A) (human) [IgG part: P01857]; experiment: as above
[10] = target: anti-P-Selectin antibody (IgG4 subclass with mutations S228P/L235E) (human) [IgG part: P01861]; experiment: as above
[11] = target: anti-IGF-1R antibody (IgG1 subclass with mutations I253A/H310A/H435A) (human) [IgG part: P01857]; experiment: as above
[12] = target: anti-VEGF/ANG2 antibody (IgG1 subclass with mutations P329G/L234A/L235A/I253A/H310A/H435A) (human) [IgG part: P01857]; experiment: sandwich ELISA assay B; capture on SA plate; tracer M1.7.10-Dig; analyte 3 ng/mL
[13] = target: anti-VEGF/ANG2 antibody (IgG1 subclass with mutations P329G/L234A/L235A) (human) [IgG part: P01857]; experiment: as above
[14] = target: anti-P-Selectin antibody (IgG4 subclass with mutations S228P/L235E) (human) [IgG part: P01861]; experiment: as above
[15] = target: anti-IGF-1R antibody (IgG1 subclass with mutations I253A/H310A/H435A) (human) [IgG part: P01857]; experiment: as above
[16] = target: anti-P-Selectin antibody (IgG4 subclass with mutations S228P/L235E) [IgG part: P01861]; experiment: sandwich ELISA assay A; capture M1.7.10-Bi; antibody 4 at 25 ng/mL
[17] = target: anti-VEGF/ANG2 antibody (IgG1 subclass with mutations P329G/L234A/L235A) [IgG part: P01857]; experiment: sandwich ELISA assay A; capture M1.7.10-Bi; antibody 2 at 2 ng/mL
[18] = target: anti-P-Selectin antibody (IgG4 subclass with mutations S228P/L235E) [IgG part: P01861]; experiment: sandwich ELISA assay A; capture M1.7.10-Bi; antibody 4 at 100 ng/mL
[19] = target: anti-IGF-1R antibody (IgG1 subclass with mutations I253A/H310A/H435A) [IgG part: P01857]; experiment: sandwich ELISA assay A; capture M1.7.10-Bi; antibody 3 at 25 ng/mL
[20] = target: anti-VEGF/ANG2 antibody (IgG1 subclass with mutations P329G/L234A/L235A/I253A/H310A/H435A) [IgG part: P01857]; experiment: sandwich ELISA assay A; capture M1.7.10-Bi; antibody 1 at 6 ng/mL
[21] = target: anti-VEGF/ANG2 antibody (IgG1 subclass with mutations P329G/L234A/L235A/I253A/H310A/H435A) (human) [IgG part: P01857]; experiment: sandwich ELISA assay B; capture on SA plate; tracer M1.7.10-Dig; analyte 13 ng/mL
[22] = target: anti-VEGF/ANG2 antibody (IgG1 subclass with mutations P329G/L234A/L235A) (human) [IgG part: P01857]; experiment: as above
[23] = target: anti-P-Selectin antibody (IgG4 subclass with mutations S228P/L235E) (human) [IgG part: P01861]; experiment: as above
[24] = target: anti-IGF-1R antibody (IgG1 subclass with mutations I253A/H310A/H435A) (human) [IgG part: P01857]; experiment: as above
[25] = target: anti-P-Selectin antibody (IgG4 subclass with mutations S228P/L235E) [IgG part: P01861]; experiment: sandwich ELISA assay A; capture M1.7.10-Bi; antibody 4 at 3 ng/mL

Binder | signal [OD405 nm] [1] [OD405 nm] | signal [OD405 nm] [2] [OD405 nm] | signal [OD405 nm] [3] [OD405 nm] | signal [OD405 nm] [4] [OD405 nm] | signal [OD405 nm] [5] [OD405 nm] | signal [OD405 nm] [6] [OD405 nm] | signal [OD405 nm] [7] [OD405 nm] | signal [OD405 nm] [8] [OD405 nm] | signal [OD405 nm] [9] [OD405 nm] | signal [OD405 nm] [10] [OD405 nm] | signal [OD405 nm] [11] [OD405 nm] | signal [OD405 nm] [12] [OD405 nm] | signal [OD405 nm] [13] [OD405 nm] | signal [OD405 nm] [14] [OD405 nm] | signal [OD405 nm] [15] [OD405 nm] | signal [OD405 nm] [16] [OD405 nm] | signal [OD405 nm] [17] [OD405 nm] | signal [OD405 nm] [18] [OD405 nm] | signal [OD405 nm] [19] [OD405 nm] | signal [OD405 nm] [20] [OD405 nm] | other results
B1 | 0.044 | 0.047 | 0.046 | 0.041 | 0.034 | 0.04 | 0.216 | 1.16 | 1.22 | 1.19 | 1.21 | 0.036 | 0.165 | 0.05 | 0.047 | 0.037 | 0.669 | 0.04 | 0.043 | 0.042 | signal [OD405 nm] [21]: 0.034 OD405 nm; signal [OD405 nm] [22]: 0.217 OD405 nm; signal [OD405 nm] [23]: 0.047 OD405 nm; signal [OD405 nm] [24]: 0.044 OD405 nm; signal [OD405 nm] [25]: 0.033 OD405 nm
B2 | 0.05 | 0.04 | 0.048 | 0.048 | 0.036 | 0.044 | 3.23 | 0.094 | 0.057 | 0.053 | 0.077 | 0.04 | 2.51 | 0.031 | 0.046 | 0.048 | 1.13 | 0.046 | 0.047 | 0.045 | signal [OD405 nm] [21]: 0.053 OD405 nm; signal [OD405 nm] [22]: 3.15 OD405 nm; signal [OD405 nm] [23]: 0.037 OD405 nm; signal [OD405 nm] [24]: 0.043 OD405 nm; signal [OD405 nm] [25]: 0.04 OD405 nm
B3 | 0.058 | 0.048 | 2.89 | 0.045 | 0.04 | 1.74 | 0.21 | 0.066 | 0.068 | 0.05 | 0.083 | 0.039 | 0.044 | 0.039 | 2.26 | 0.057 | 0.047 | 0.057 | 2.51 | 0.057 | signal [OD405 nm] [21]: 0.041 OD405 nm; signal [OD405 nm] [22]: 0.066 OD405 nm; signal [OD405 nm] [23]: 0.042 OD405 nm; signal [OD405 nm] [24]: 2.85 OD405 nm; signal [OD405 nm] [25]: 0.037 OD405 nm
